Results: publication PMC9638894, “Anti-CRISPR proteins function through thermodynamic tuning and allosteric regulation of CRISPR RNA-guided surveillance complex” (Nucleic Acids Research, 2022)

Target: T1, type IF CRISPR RNA guided surveillance complex (Csy) (UniProt Q02MM2 1-187)
T1 construct: Cas8f subunit (tail) of the type IF Csy complex; Csy1); Cas5 subunit (tail) of the type IF Csy complex; Csy2); Cas7 subunit (backbone, six copies Cas7.1f-Cas7.6f) of the type IF Csy complex; Csy3); Cas6f subunit (head) of the type IF Csy complex; Csy4); Ribonucleoprotein: also holds one crRNA (synthetic CRISPR, Addgene 89244); Purified on Ni-NTA, so one subunit carries a His tag; also called Csy …
Assay: ITC; AcrIF9 or AcrIF2 binding to the Csy complex; conditions not told in the text shown (Supplemental Figure S8)
Details: both partners purified

B1: AcrIF9 (natural protein)
chain: MKAAYIIKEVQNINSEREGTQIEATSLSQAKRIASKEQCFHGTVMRIETVNGLWLAYKEDGKRWVDCQ
B1 was tested, and the dH was over 0.
